Here are results for nine proteins from the supplement of paper PMC10567573.

The data set is described as follows: protein stability index of a GFP-peptide fusion (GPS, HEK-293T) (PSI 1-6); higher = more stable. To be noted: c terminus: native.
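Further: lentivirally expressed fusion library, cells FACS-sorted into six equal-sized GFP/DsRed ratio bins, PSI computed from sequencing read fractions per bin weighted by bin number.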

B1: SNF8 addS (peptide)
chain: LPALFTDLYSQEITAEEAREALPS
Take B1: the protein stability index (parent: NP_009172.2) amounted to 4.4.

B2: TRPA1 addS (peptide)
chain: EQRNSRWNTVLRAVKAKTHHLEPS
Regarding B2, the protein stability index (parent: NP_015628.1) is 4.6.

B3: SNF8 addH (peptide)
chain: LPALFTDLYSQEITAEEAREALPH
For B3, the protein stability index (parent: NP_009172.2) was determined as 4.88.

B4: POLD2 addS (peptide)
chain: CQPISFSGFGAEDDDLGGLGLGPS
B4: the protein stability index (parent: NP_006221.1) is 2.6.

B5: POLD2 addH (peptide)
chain: CQPISFSGFGAEDDDLGGLGLGPH
Consider B5, for which the protein stability index (parent: NP_006221.1) amounted to 2.24.

B6: PSMB5 addS (peptide)
chain: DGWIRVSSDNVADLHEKYSGSTPS
Consider B6, for which the protein stability index (parent: NP_002788.1) came out at 3.98.

B7: TRPA1 addH (peptide)
chain: EQRNSRWNTVLRAVKAKTHHLEPH
For the protein B7, the protein stability index (parent: NP_015628.1) worked out at 5.05.

B8: BEX2 addS (peptide)
chain: HSLRAVSTDPPHHDHHDEFCLMPS
B8: the protein stability index (parent: NP_116010.1) was found to be 3.84.

B9: PSMB5 addH (peptide)
chain: DGWIRVSSDNVADLHEKYSGSTPH
For B9, for the setting “parent: NP_002788.1”, the protein stability index came out at 3.83.
